Reference: the supplement of paper PMC7877785
± gives the uncertainty stated by the source.

Assay: self-splicing fitness, log relative to wild type (ln ratio); higher = more splicing; Tetrahymena group I intron in knt gene, E. coli kanamycin selection, DiMSum; sequences stand for … in CUCUCU…GGAGGGAAAAGUUAUCAGGCAUGCACCUGGUAGCUAGUCUUUAAACCAAUAGAUUGCAUCGGUUUAAAAGGCAAGACCGUCAAAUUGCGGGAAAGGGGUCAACAGCCGUUCAGUACCAAGUCUCAGGGGAAACUUUGAGAUGGCCUUGCAAAGGGUAUGGUAAUAAGCUGACGGACAUGGUCCUAACCACGCAGCCAAGUCCUAAGUCAACAGAUCUUCUGUUGAUAUGGAUGCAGUUCACAGACUAAAUGUCGGUCGGGGAAGAUGUAUUCUUCUCAUAAGAUAUAGUCGGACCUCUCCUUAAUGGGAGCUAGCGGAUGAAGUGAUGCAACACUGGAGCCGCUGGGAACUAAUUUGUAUGCGAAAGUAUAUUGAUUAGUUUUGGAGUACUCGUGGUCG
Procedure, shortened: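 A randomised library covering all eight P1ex-region intron nucleotides was built with the intron in the knt kanamycin-resistance gene on pET-22b(+) and held in E. coli BL21(DE3). Cells were grown overnight at 37°C or 30°C on LB agar, with or without 25 μg/mL kanamycin, plus 100 μg/mL carbenicillin, 50 μM IPTG and 0.2% rhamnose, and pooled colonies were amplicon-sequenced on an Illumina HiSeq 2500. DiMSum fitness is the error-weighted combination of wild-type-normalised replicate fold changes, kanamycin versus none.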

Row | Sequence | self-splicing fitness (ln) (30 °C) | self-splicing fitness (ln) (37 °C)
1 | AGGCAGCAAUAUUACGUCAA | -1.25 ± 0.098 | -0.465 ± 0.095
2 | AUUCAGCAAUAUUACGCGAC | -2.38 ± 0.23 | -0.937 ± 0.18
3 | CAGUAGCAAUAUUACGCAUC | – | -1.82 ± 0.26
4 | UCAAAGCAAUAUUACGUUAG | -2.02 ± 0.12 | -1.64 ± 0.12
5 | UGCGAGCAAUAUUACGACCU | -0.697 ± 0.18 | -0.146 ± 0.2
6 | GAAAAGCAAUAUUACGUACU | -0.864 ± 0.069 | -0.0522 ± 0.1
7 | UUAAAGCAAUAUUACGGUAG | -0.312 ± 0.076 | 0.29 ± 0.11
8 | GACAAGCAAUAUUACGAUAA | -1.68 ± 0.11 | -0.345 ± 0.1
9 | GAGGAGCAAUAUUACGGCUU | -3.52 ± 0.37 | -2.39 ± 0.25
10 | GACCAGCAAUAUUACGCUGU | -3.34 ± 0.15 | -1.54 ± 0.095
11 | GUACAGCAAUAUUACGCACU | -0.597 ± 0.13 | -1.16 ± 0.24
12 | GACGAGCAAUAUUACGUUGU | -3.4 ± 0.14 | -2.74 ± 0.16
13 | AGCGAGCAAUAUUACGUUGG | -2.04 ± 0.12 | -3.5 ± 0.46
14 | UCAGAGCAAUAUUACGUACU | -3.35 ± 0.34 | -2.24 ± 0.3
15 | CCCAAGCAAUAUUACGAGGA | -1.42 ± 0.078 | -0.592 ± 0.074
16 | AAUAAGCAAUAUUACGGAUC | -0.855 ± 0.087 | -0.124 ± 0.14
17 | CCGGAGCAAUAUUACGCUAG | -3.07 ± 0.21 | -2.33 ± 0.26
18 | UGGAAGCAAUAUUACGAGGG | – | -1.89 ± 0.34
19 | CGGUAGCAAUAUUACGAAAC | – | -2.72 ± 0.27
20 | GCGUAGCAAUAUUACGCUUU | -3.68 ± 0.22 | -3.98 ± 0.19
21 | GUUCAGCAAUAUUACGCGAC | -3.9 ± 0.29 | -1.22 ± 0.29
22 | CAUUAGCAAUAUUACGCUGA | -3.13 ± 0.24 | -1.96 ± 0.26
23 | CGAGAGCAAUAUUACGUGUU | -3.83 ± 0.25 | -3.71 ± 0.46
24 | UCCGAGCAAUAUUACGAUGU | -3 ± 0.22 | -1.87 ± 0.17
25 | GGUGAGCAAUAUUACGAUCU | -0.331 ± 0.18 | -0.809 ± 0.27
26 | CAUGAGCAAUAUUACGACCG | -0.701 ± 0.12 | 0.276 ± 0.14

Row | Sequence | self-splicing fitness (ln) (30 °C) | self-splicing fitness (ln) (37 °C)
27 | GAGUAGCAAUAUUACGUUCA | -0.849 ± 0.075 | -0.31 ± 0.095
28 | GCUGAGCAAUAUUACGCAAU | -2.2 ± 0.26 | -1.9 ± 0.23
29 | CACAAGCAAUAUUACGUGUA | -3.53 ± 0.13 | -1.78 ± 0.093
30 | AGCAAGCAAUAUUACGGGGC | -3.92 ± 0.29 | -2.89 ± 0.3
31 | GGAUAGCAAUAUUACGGCUU | -0.686 ± 0.095 | -0.309 ± 0.11
32 | UUUGAGCAAUAUUACGUAUU | -3.89 ± 0.27 | -2.46 ± 0.21
33 | CAGUAGCAAUAUUACGGCAG | -0.259 ± 0.073 | 0.0185 ± 0.1
34 | CCUUAGCAAUAUUACGGUCC | -3.5 ± 0.46 | -3.04 ± 0.35
35 | GCAAAGCAAUAUUACGCGCG | -1.55 ± 0.12 | -0.161 ± 0.15
36 | CCGAAGCAAUAUUACGUACG | -1.37 ± 0.13 | -0.92 ± 0.13
37 | ACCAAGCAAUAUUACGAGUA | -2.81 ± 0.14 | -2.29 ± 0.13
38 | UGGCAGCAAUAUUACGAAGC | – | -1.72 ± 0.45
39 | ACACAGCAAUAUUACGAUAC | -2.58 ± 0.26 | -2.69 ± 0.25
40 | UUGUAGCAAUAUUACGACAG | -0.234 ± 0.21 | -0.137 ± 0.25
41 | CGCUAGCAAUAUUACGAUGC | -4.31 ± 0.46 | -2.58 ± 0.36
42 | CCCCAGCAAUAUUACGAAAC | -3.12 ± 0.2 | -1.89 ± 0.27
43 | UGACAGCAAUAUUACGUGUU | -4.32 ± 0.19 | -2.22 ± 0.19
44 | ACGUAGCAAUAUUACGGCAG | -4.15 ± 0.28 | -2.61 ± 0.33
45 | AAUAAGCAAUAUUACGGUCU | -0.462 ± 0.055 | 0.0374 ± 0.073
46 | CGAAAGCAAUAUUACGUCCU | -0.837 ± 0.11 | -0.445 ± 0.13
47 | GCCUAGCAAUAUUACGUGCC | -3.38 ± 0.23 | -2.08 ± 0.23
48 | CUAUAGCAAUAUUACGCCUC | -3.66 ± 0.32 | -3.15 ± 0.37
49 | AGCGAGCAAUAUUACGCUUU | – | -2.89 ± 0.27
50 | GAUAAGCAAUAUUACGUUGA | -2.88 ± 0.14 | -1.79 ± 0.14
51 | UACUAGCAAUAUUACGAAUC | -2.81 ± 0.18 | -3.38 ± 0.35
52 | UCGAAGCAAUAUUACGAACG | -1.82 ± 0.13 | -0.935 ± 0.14

Row | Sequence | self-splicing fitness (ln) (30 °C) | self-splicing fitness (ln) (37 °C)
53 | AGGAAGCAAUAUUACGCGCA | -0.555 ± 0.13 | 0.268 ± 0.16
54 | UAAAAGCAAUAUUACGAUUC | -2.85 ± 0.17 | -1.02 ± 0.2
55 | AAACAGCAAUAUUACGAGCC | -2.55 ± 0.2 | -1.75 ± 0.3
56 | ACAAAGCAAUAUUACGACUC | -0.72 ± 0.11 | -0.304 ± 0.12
57 | UAGUAGCAAUAUUACGCGCA | -0.614 ± 0.1 | 0.274 ± 0.11
58 | UGCUAGCAAUAUUACGGCAG | -2.52 ± 0.12 | -1.1 ± 0.13
59 | GCACAGCAAUAUUACGGGUA | -1.36 ± 0.055 | -0.723 ± 0.061
60 | UAAGAGCAAUAUUACGAUAU | -3.22 ± 0.24 | -2.86 ± 0.28
61 | UAUAAGCAAUAUUACGCAUA | -1.92 ± 0.12 | -0.585 ± 0.12
62 | UCCAAGCAAUAUUACGUCAA | -2.68 ± 0.19 | -0.871 ± 0.1
63 | GCACAGCAAUAUUACGUGAG | 0.0789 ± 0.047 | 0.0342 ± 0.06
64 | AAUGAGCAAUAUUACGGAUA | -1.86 ± 0.27 | -1.8 ± 0.37
65 | GGGAAGCAAUAUUACGAUGU | -1.02 ± 0.083 | -0.0643 ± 0.1
66 | AUCAAGCAAUAUUACGUUCU | -0.858 ± 0.092 | -0.459 ± 0.12
67 | GGCUAGCAAUAUUACGGGUA | -0.679 ± 0.12 | -0.368 ± 0.11
68 | ACUGAGCAAUAUUACGGCAG | -1.75 ± 0.12 | -0.311 ± 0.15
69 | UAUUAGCAAUAUUACGCCCU | -1.3 ± 0.21 | 0.526 ± 0.2
70 | GCGGAGCAAUAUUACGCAGU | -3.68 ± 0.45 | -1.79 ± 0.39
71 | GAGCAGCAAUAUUACGAUCA | -2.14 ± 0.15 | -1.99 ± 0.15
72 | GUCAAGCAAUAUUACGUAGA | -2.04 ± 0.1 | -1.17 ± 0.12
73 | CAUUAGCAAUAUUACGAAGC | -2.81 ± 0.32 | -2.44 ± 0.49
74 | UGUCAGCAAUAUUACGACAC | -3.09 ± 0.47 | –
75 | CUGAAGCAAUAUUACGUCGA | -2.2 ± 0.17 | -1.57 ± 0.23
76 | AUUUAGCAAUAUUACGCGGU | -2.13 ± 0.29 | -1.87 ± 0.44
77 | UCAGAGCAAUAUUACGGUAA | -3.7 ± 0.47 | -1.85 ± 0.41
